Test results published in PMC8509413.

Assays:
[1] = biological target: wild-type equine lutropin/choriogonadotropin receptor (eLH/CGR) (equine)
[2] = biological target: wild-type equine lutropin/choriogonadotropin receptor (eLH/CGR) (equine); remark: listed apart in the source

Substance: recombinant equine chorionic gonadotropin (rec-eCGβ/α) (from UniProt P08751 21-169; P01220 25-120) (ligand)
- EC50 of rec-eCG-stimulated cAMP accumulation (HTRF) in transiently transfected CHO-K1 cells, 30 min (eLH/CGR-D564G (equine)): 58.3 ng/mL
- EC50 of rec-eCG-stimulated cAMP accumulation (HTRF) in transiently transfected CHO-K1 cells, 30 min (eLH/CGR-M398T (equine)): 19.8 ng/mL
- EC50 of rec-eCG-stimulated cAMP accumulation (HTRF) in transiently transfected CHO-K1 cells, 30 min (experiment of Table 1) [1]: 44.2 ng/mL
- EC50 of rec-eCG-stimulated cAMP accumulation (HTRF) in transiently transfected CHO-K1 cells, 30 min (eLH/CGR-L457R (equine)): 24.4 ng/mL
- EC50 of rec-eCG-stimulated cAMP accumulation (HTRF) in transiently transfected CHO-K1 cells, 30 min (eLH/CGR-D578Y (equine)): 47.9 ng/mL
- EC50 of rec-eCG-stimulated cAMP accumulation (HTRF) in transiently transfected CHO-K1 cells, 30 min (eLH/CGR-Y546F (equine)): 95.9 ng/mL
- EC50 of rec-eCG-stimulated cAMP accumulation (HTRF) in transiently transfected CHO-K1 cells, 30 min (separate experiment of Table 2) [2]: 30.3 ng/mL
- EC50 of rec-eCG-stimulated cAMP accumulation (HTRF) in transiently transfected CHO-K1 cells, 30 min (eLH/CGR-R464H (equine)): 914 ng/mL
- EC50 of rec-eCG-stimulated cAMP accumulation (HTRF) in transiently transfected CHO-K1 cells, 30 min (eLH/CGR-D405N (equine)): 135 ng/mL
